Biological target: EGFP (UniProt P42212 1-238 = GFP)
Assay: Biacore (SPR)

B1: GBP6 nanobody alone (VHH)
VHH: QVQLQESGGGSVQTGGSLRLSCAVSPYIGSRISLGWFRQAPGKVREGVALINSRDGSTYYADTVKGRFTISQGDANTVYLQMNSLKPEDTAIYYCAARWGQITDIQALAVASFPDWGQGTQVTVSS
notes: also called GPB6
Kd: 2.26 nM

Reference: patent publication US20190202908A1 (Harvard, published 2019)
